Numbered stars: 1 amine (or outer) side, 2 acyl side, 3 side chain; on linkers, the order of the positions; unused ones are H or OH. Square brackets hold non-standard residues; d marks the D form. Ends that are not written are not given here. * marks the point of attachment. aFL = (S)-2-((R)-3-amino-2-oxopyrrolidin-1-yl)-3-phenylpropanoic acid, O=C1[C@H](N[*:1])CCN1[C@@H](Cc1ccccc1)C(=O)[*:2]; afL = (R)-2-((R)-3-amino-2-oxopyrrolidin-1-yl)-3-phenylpropanoic acid, O=C1[C@H](N[*:1])CCN1[C@H](Cc1ccccc1)C(=O)[*:2]; 779 = 2-((1S,2R,4R)-bicyclo[2.2.1]heptan-2-yl)acetic acid, O=C(C[C@H]1C[C@@H]2CC[C@H]1C2)*; ctb = (S)-2-amino-3-(tert-butylthio)propanoic acid, CC(C)(C)SC[C@@H](N[*:1])C(=O)[*:2]; Eal = rac-imidazolidine-2-carboxylic acid, O=C(C1N([*:1])CCN1[*:3])[*:2]; 3218 = (S)-2-cyclopentylhexanoic acid, CCCC[C@H](C(=O)*)C1CCCC1; Pro(trans-4-NH2) = O=C([C@@H]1C[C@@H](N[*:3])CN1[*:1])[*:2]; 785 = 2-phenethyl-benzoic acid, O=C(c1ccccc1CCc1ccccc1)*; Sni = (S)-nipecotic acid, O=C([C@H]1CCCN([*:1])C1)[*:2]; 6013 = (2-butoxy-ethoxy)-acetic acid, CCCCOCCOCC(=O)*; Phe(3-CF3) = N[C@@H](Cc1cccc(C(F)(F)F)c1)C(=O)O; Phe(2-CF3) = N[C@@H](Cc1ccccc1C(F)(F)F)C(=O)O; Propanoyl(3-cHex) = O=C(CCC1CCCCC1)*; Gly(NCH2CH2Ph) = O=C(O)CNCCc1ccccc1; Gly(cPent) = N[C@H](C(=O)O)C1CCCC1; Hydrocinnamoyl = O=C(CCc1ccccc1)*; Hyp = O=C(O)[C@@H]1C[C@@H](O)CN1; ES‑283‑049 = not defined here; NMeL = CN[C@@H](CC(C)C)C(=O)O; Chg = N[C@H](C(=O)O)C1CCCCC1; Decanoyl = CCCCCCCCCC(=O)*; Nle = CCCC[C@H](N)C(=O)O; Nphe = O=C(O)CNCc1ccccc1; Octanoyl = CCCCCCCC(=O)*; Thz = O=C(O)[C@@H]1CSCN1; Che = not defined here; leu = not defined here; Occ = octanoic acid
T1: natriuretic peptide receptor-B (human)
T1 chain: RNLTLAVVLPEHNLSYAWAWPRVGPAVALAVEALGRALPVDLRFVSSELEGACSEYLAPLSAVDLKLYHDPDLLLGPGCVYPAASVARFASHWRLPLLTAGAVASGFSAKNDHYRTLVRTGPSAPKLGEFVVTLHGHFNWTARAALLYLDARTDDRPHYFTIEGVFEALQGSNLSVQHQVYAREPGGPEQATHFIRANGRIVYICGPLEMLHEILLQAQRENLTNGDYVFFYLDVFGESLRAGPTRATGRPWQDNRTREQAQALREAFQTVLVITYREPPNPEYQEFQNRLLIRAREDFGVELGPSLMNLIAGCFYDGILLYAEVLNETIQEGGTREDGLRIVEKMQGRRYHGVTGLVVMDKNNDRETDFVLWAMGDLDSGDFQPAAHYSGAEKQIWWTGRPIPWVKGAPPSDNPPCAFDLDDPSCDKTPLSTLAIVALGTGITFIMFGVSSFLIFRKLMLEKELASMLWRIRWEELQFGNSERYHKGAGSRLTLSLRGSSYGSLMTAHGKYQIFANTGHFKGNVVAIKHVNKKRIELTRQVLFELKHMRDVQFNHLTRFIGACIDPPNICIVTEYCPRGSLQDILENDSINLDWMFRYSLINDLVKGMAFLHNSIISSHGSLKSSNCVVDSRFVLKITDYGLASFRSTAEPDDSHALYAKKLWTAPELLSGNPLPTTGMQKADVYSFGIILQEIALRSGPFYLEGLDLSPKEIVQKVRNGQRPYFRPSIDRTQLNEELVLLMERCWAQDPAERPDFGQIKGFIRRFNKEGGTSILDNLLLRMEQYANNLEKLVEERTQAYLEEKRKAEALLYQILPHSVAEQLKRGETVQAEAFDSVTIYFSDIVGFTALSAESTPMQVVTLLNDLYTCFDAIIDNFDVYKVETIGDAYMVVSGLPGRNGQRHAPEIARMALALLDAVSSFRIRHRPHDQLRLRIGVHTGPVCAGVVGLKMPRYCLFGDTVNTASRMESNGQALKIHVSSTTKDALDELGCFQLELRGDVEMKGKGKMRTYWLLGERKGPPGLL


Biological target: T1, natriuretic peptide receptor-B
Experiment: cell-based or functional assay

EC50 group, cGMP in GTM-3 cells [µM] | Binder
≤ 1 | [Decanoyl][Sni]F[leu]L[Hyp][NMeL]DRI-NH2 (reading uncertain; also: printed as 5587-Sni-Phe-leu-Leu-Hyp-Nml-Asp-Arg-Ile-NH2) [JAL-1666]
≤ 1 | [Occ][Sni]F[leu]L[Pro(trans-4-NH2)][NMeL]VP[Che] (reading uncertain; also: printed as Occ-Sni-Phe-leu-Leu-Tap-Nml-Val-Pro-Che) [JAL-1654]
≤ 5 | [6013][Sni]F[leu]L[Hyp][NMeL]DRI-NH2 (reading uncertain; also: printed as 6013-Sni-Phe-leu-Leu-Hyp-Nml-Asp-Arg-Ile-NH2) [JAL-1665]
≤ 1 | [Occ][Sni]F[leu]L[Hyp][Gly(cPent)]DRI-NH2 (reading uncertain; also: printed as Occ-Sni-Phe-leu-Leu-Hyp-Cpg-Asp-Arg-Ile-NH2) [JAL-1626]
≤ 1 | [Occ][Sni]F[ctb]L[Hyp][NMeL]DRI-NH2 [JAL-1623]
≤ 1 | [Occ][Sni]F[leu][Nle][Hyp][NMeL]DRI-NH2 (reading uncertain; also: printed as Occ-Sni-Phe-leu-Nle-Hyp-Nml-Asp-Arg-Ile-NH2) [JAL-1624]
≤ 15 | XGXFLLXXDRI (HELM PEPTIDE1{[O=C(CCc1ccccc1)[*:2]].G.[O=C([C@H]1CCCN([*:1])C1)[*:2]].F.[dL].L.[Hyp].[meL].D.R.I.[am]}$$$$V2.0; SMILES CC[C@H](C)[C@H](NC(=O)[C@H](CCCNC(=N)N)NC(=O)[C@H](CC(=O)O)NC(=O)[C@H](CC(C)C)N(C)C(=O)[C@@H]1C[C@@H](O)CN1C(=O)[C@H](CC(C)C)NC(=O)[C@@H](CC(C)C)NC(=O)[C@H](Cc1ccccc1)NC(=O)[C@H]1CCCN(C(=O)CNC(=O)CCc2ccccc2)C1)C(N)=O) [JAL-1668]
≤ 15 | [Occ][Sni][Phe(2-CF3)][leu]L[Hyp][NMeL]DRI-NH2 (reading uncertain; also: printed as Occ-Sni-Otf-leu-Leu-Hyp-Nml-Asp-Arg-Ile-NH2) [JAL-1622]
≤ 15 | [3218][Sni]F[leu]L[Hyp][NMeL]DRI-NH2 (reading uncertain; also: printed as 3218-Sni-Phe-leu-Leu-Hyp-Nml-Asp-Arg-Ile-NH2) [JAL-1664]
≤ 5 | [Occ][Sni]F[leu]L[Hyp][NMeL]D[Eal][Che] (reading uncertain; also: printed as Occ-Sni-Phe-leu-Leu-Hyp-Nml-Asp-Eal-Che) [JAL-1639]
≤ 1 | [Occ][Sni][Phe(3-CF3)][leu]L[Hyp][NMeL]DRI-NH2 (reading uncertain; also: printed as Occ-Sni-Mtf-leu-Leu-Hyp-Nml-Asp-Arg-Ile-NH2) [JAL-1621]
≤ 5 | XXFGLKLDRI (HELM PEPTIDE1{[CCCCCCCC(=O)[*:2]].[O=C(C1CCCN([*:1])C1)[*:2]].F.G.L.K.L.D.R.I.[am]}$$$$V2.0; SMILES CCCCCCCC(=O)N1CCCC(C(=O)N[C@@H](Cc2ccccc2)C(=O)NCC(=O)N[C@@H](CC(C)C)C(=O)N[C@@H](CCCCN)C(=O)N[C@@H](CC(C)C)C(=O)N[C@@H](CC(=O)O)C(=O)N[C@@H](CCCNC(=N)N)C(=O)N[C@H](C(N)=O)[C@@H](C)CC)C1) [JAL-0697]
≤ 1 | [Occ][Sni]F[leu]L[Hyp]IDRI-NH2 (reading uncertain; also: printed as Occ-Sni-Phe-leu-Leu-Hyp-Ile-Asp-Arg-Ile-NH2) [JAL-1625]
≤ 5 | [Occ][Sni]F[leu]L[Hyp][Chg]DRI-NH2 (reading uncertain; also: printed as Occ-Sni-Phe-leu-Leu-Hyp-Chg-Asp-Arg-Ile-NH2) [JAL-1627]
≤ 15 | {Propanoyl(3-cHex)}-[dA][dA]FGLKLDRI-NH2 [JAL-0703]
≤ 5 | [Occ][Sni]F[leu]L[Hyp][NMeL]EP[Che] (reading uncertain; also: printed as Occ-Sni-Phe-leu-Leu-Hyp-Nml-Glu-Pro-Che) [JAL-1652]
≤ 1 | [Occ][Sni]F[leu]L[Hyp][NMeL]D[Thz][Che] (reading uncertain; also: printed as Occ-Sni-Phe-leu-Leu-Hyp-Nml-Asp-Eaz-Che) [JAL-1638]
≤ 5 | [Hydrocinnamoyl][Sni]F[leu]L[Hyp][NMeL]DRI-NH2 (reading uncertain; also: printed as 1281-Sni-Phe-leu-Leu-Hyp-Nml-Asp-Arg-Ile-NH2) [JAL-1661]
≤ 15 | [Occ][Sni][Nphe][leu]L[Hyp][NMeL]DRI-NH2 (reading uncertain; also: printed as Occ-Sni-NPhe-leu-Leu-Hyp-Nml-Asp-Arg-Ile-NH2) [JAL-1634]
≤ 15 | [785][Sni]F[leu]L[Hyp][NMeL]DRI-NH2 (reading uncertain; also: printed as 785-Sni-Phe-leu-Leu-Hyp-Nml-Asp-Arg-Ile-NH2) [JAL-1660]
≤ 1 | [Occ][Sni]F[leu][Nle][Hyp][NMeL]DP[Che] (reading uncertain; also: printed as Occ-Sni-Phe-leu-Nle-Hyp-Nml-Asp-Pro-Che) [JAL-1657]
≤ 5 | [Occ][aFL][leu]L[Hyp][NMeL]DRI-NH2 (reading uncertain; also: printed as Occ-(aFL)-leu-Leu-Hyp-Nml-Asp-Arg-Ile-NH2) [JAL-1636]
≤ 5 | Octanoyl-[dA][dA]FGLKLDRI-NH2 [JAL-0701]
≤ 5 | [Occ][afL][leu]L[Hyp][NMeL]DRI-NH2 (reading uncertain; also: printed as Occ-(afL)-leu-Leu-Hyp-Nml-Asp-Arg-Ile-NH2) [JAL-1637]
≤ 15 | [Occ][Sni][Gly(NCH2CH2Ph)][leu]L[Hyp][NMeL]DRI-NH2 (reading uncertain; also: printed as Occ-Sni-NHfe-leu-Leu-Hyp-Nml-Asp-Arg-Ile-NH2) [JAL-1635]
≤ 5 | [779][Sni]F[leu]L[Hyp][NMeL]DRI-NH2 (reading uncertain; also: printed as 779-Sni-Phe-leu-Leu-Hyp-Nml-Asp-Arg-Ile-NH2) [JAL-1659]
≤ 5 | [Occ][Sni]F[leu]L[Hyp][NMeL]D[ES‑283‑049] (reading uncertain; also: printed as Occ-Sni-Phe-leu-Leu-Hyp-Nml-Asp-(ES-283-049)) [JAL-1646]

— patent US9187525B2, “Methods of treating ophthalmic diseases using NPR-B agonists” (Shire Orphan Therapies GmbH, dated 2015)
